This passage reports protein stability index results from the supplement of paper PMC9732359.

± gives the uncertainty stated by the source.

This data set in a line: protein stability index of a GFP-peptide fusion (yeast GPS) (PSI 1-4); higher = more stable; sorted into four equal gates, so the index is relative within each strain. The procedure, abridged: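 Each library plasmid carries Cherry plus GFP with a tiled 17-residue yeast protein peptide fused downstream, and the pooled library was carried in yeast. Mid-log cultures in leucine-free medium were sorted into four equal gates by GFP/Cherry ratio. Reads from Illumina sequencing of PCR-amplified plasmids from each gate were assigned to strains by barcodes. Per peptide, the protein stability index was computed as the summed products of gate read frequency and gate number.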

For ENMWPFSYQEVEFKLPK [CDC53], the protein stability index runs as follows: (doa10∆) 1.83 ± 0.048; (pdr5∆) 2.19 ± 0.058; (san1∆) 1.34 ± 0.076; (ubr1∆) 2.47 ± 0.035.

On to ENNSDSNSNNNGNKDSS [SWI1], for which the protein stability index runs as follows: (doa10∆) 2.95 ± 0.089; (pdr5∆) 3.12 ± 0.076; (san1∆) 3.05 ± 0.06; (ubr1∆) 3.04 ± 0.068.

For the sequence ENPTDNFIIWINSIDTT [GRR1], the protein stability index is, setting by setting: (doa10∆) 2.44 ± 0.045; (pdr5∆) 2.51 ± 0.053; (san1∆) 2.61 ± 0.049; (ubr1∆) 2.74 ± 0.048.

As for ENSEPPALESSPVTGDN [SNF2], the protein stability index (doa10∆) stood at 3.3 ± 0.075, the protein stability index (pdr5∆) is 3.24 ± 0.073, the protein stability index (san1∆) worked out at 3.19 ± 0.067 and the protein stability index (ubr1∆) is 3.22 ± 0.062.

Regarding ENTKDNLVKEKEALQNN [SMC1], the protein stability index by setting is: (doa10∆) 3.51 ± 0.12; (pdr5∆) 3.26 ± 0.13; (san1∆) 3.45 ± 0.13.

For the sequence ENYDDTELRQLFQENDD [DSN1], the protein stability index stood at 2.23 ± 0.072 (doa10∆), 2.63 ± 0.077 (pdr5∆), 2.6 ± 0.096 (san1∆) and 2.55 ± 0.13 (ubr1∆).

On to EPDLESQISKAEMEADS [SMC4], for which the protein stability index is, setting by setting: (doa10∆) 2.89 ± 0.078; (pdr5∆) 3.39 ± 0.18; (san1∆) 3.43 ± 0.069; (ubr1∆) 2.55 ± 0.17.

On to EPDREKIKLLTQATSED [RPC19], for which the protein stability index by setting is: (doa10∆) 2.95 ± 0.2; (pdr5∆) 3.19 ± 0.11; (san1∆) 2.73 ± 0.12; (ubr1∆) 3.28 ± 0.11.

On to EPELRVLSTEEILNIFK [RPO21], for which the protein stability index reads like this: (doa10∆) 3.43 ± 0.22; (pdr5∆) 3.45 ± 0.17; (san1∆) 3.51 ± 0.084; (ubr1∆) 3.55 ± 0.23.

EPIRFLPNQFPLKIHRT [SWI1]: the protein stability index runs as follows: (doa10∆) 1.66 ± 0.06; (pdr5∆) 1.81 ± 0.075; (san1∆) 1.59 ± 0.12; (ubr1∆) 1.73 ± 0.07.

As to EPLAIALSMGKSSAFVI [ARP7], the protein stability index (doa10∆) worked out at 1.48 ± 0.076, the protein stability index (pdr5∆) stood at 2.02 ± 0.071, the protein stability index (san1∆) was found to be 1.67 ± 0.1 and the protein stability index (ubr1∆) worked out at 1.77 ± 0.089.

Regarding EPNSAKKIRFLQLIIFL [RGR1], the protein stability index was determined as 1.66 ± 0.11 (doa10∆), 2.42 ± 0.1 (pdr5∆) and 2.89 ± 0.3 (san1∆).

Take EPPAGVALPPGSNYNPY [CYT1]: the protein stability index (doa10∆) was 2.77 ± 0.12, the protein stability index (pdr5∆) stood at 3.13 ± 0.076, the protein stability index (san1∆) came out at 2.83 ± 0.12 and the protein stability index (ubr1∆) was found to be 3.15 ± 0.047.

For EQEDIIEKTESVDKKVD [SWI3], the protein stability index (doa10∆) was determined as 3.04 ± 0.07, the protein stability index (pdr5∆) turned out to be 3.02 ± 0.081, the protein stability index (san1∆) came out at 3.14 ± 0.041 and the protein stability index (ubr1∆) turned out to be 2.99 ± 0.094.

For EQENMRKVREQEELKKR [MED2], the protein stability index amounted to 3.13 ± 0.19 (pdr5∆) and 3.56 ± 0.11 (ubr1∆).

Turning to EQKWLIYDKKDHKYVCT [SRB8], the protein stability index was determined as 2.64 ± 0.29 (doa10∆), 2.33 ± 0.17 (pdr5∆) and 3.23 ± 0.22 (ubr1∆).

Regarding EQLSPQDVLQMLGRAGR [BRR2], the protein stability index runs as follows: (doa10∆) 3.14 ± 0.27; (pdr5∆) 3.17 ± 0.18; (san1∆) 3.48 ± 0.15; (ubr1∆) 3.36 ± 0.12.

With EQQLFEIFAFGNIKDLP [CSN9], the protein stability index worked out at 2.88 ± 0.076 (doa10∆), 2.97 ± 0.06 (pdr5∆), 2.96 ± 0.035 (san1∆) and 2.86 ± 0.035 (ubr1∆).

Regarding EQTTGGNNKDLKNTMQY [RPB4], the protein stability index by setting is: (doa10∆) 3.24 ± 0.11; (pdr5∆) 3.09 ± 0.082; (san1∆) 2.65 ± 0.17; (ubr1∆) 3.18 ± 0.19.

On to EQWLRQFEVSDDEKNDK [SNF2], for which the protein stability index worked out at 3.41 ± 0.065 (doa10∆), 3.21 ± 0.059 (pdr5∆), 3.17 ± 0.053 (san1∆) and 3.09 ± 0.046 (ubr1∆).

For the sequence ERGLKVKEYQLRDRNFS [RPL11A], the protein stability index (pdr5∆) amounted to 2.63 ± 0.2.

On to ERGQKVKNVKNSDLEFN [ARP9], for which the protein stability index is, setting by setting: (doa10∆) 3 ± 0.18; (pdr5∆) 1.96 ± 0.09; (san1∆) 2.17 ± 0.18; (ubr1∆) 1.25 ± 0.072.

Regarding ERIVVSYEYYNIKHKHT [SMC2], the protein stability index was determined as 1.63 ± 0.047 (doa10∆), 1.86 ± 0.064 (pdr5∆), 1.74 ± 0.11 (san1∆) and 1.87 ± 0.049 (ubr1∆).

In the case of ERLAKVNEMNDQLAQEL [NNF1], the protein stability index is, setting by setting: (doa10∆) 3 ± 0.22; (pdr5∆) 3.42 ± 0.17; (san1∆) 3.28 ± 0.12; (ubr1∆) 2.85 ± 0.18.

Sequence ERLQLLEDVVGAKSFEV [SMC3] yielded a protein stability index (doa10∆) of 3.14 ± 0.21.

As for ERNAAYQKEYETAERNI [RPL7A], the protein stability index reads like this: (doa10∆) 2.71 ± 0.12; (pdr5∆) 2.61 ± 0.1; (san1∆) 2.48 ± 0.095; (ubr1∆) 2.62 ± 0.18.
